Experimental data as given in US20140058068A1 (UNIVERSITY OF MIAMI, published 2014).
Square brackets hold non-standard residues; d marks the D form. Ends that are not written are not given here. * marks the point of attachment. Desaminotyrosyl = O=C(CCc1ccc(O)cc1)*; NMeY = CN[C@@H](Cc1ccc(O)cc1)C(=O)O; Agmatine = N=C(N)NCCCCN*; NMeA = CN[C@@H](C)C(=O)O; Nle = CCCC[C@H](N)C(=O)O; Orn = NCCC[C@H](N)C(=O)O; dAbu = CC[C@@H](N)C(=O)O; Abu = CC[C@H](N)C(=O)O; GABA = NCCCC(=O)O

T1: GHRH receptor of human pituitary membrane homogenates (human, UniProt Q02643 23-423)
T1 construct: whole, on cells; Native receptor in pituitary membrane homogenates, not intact cells; also called hGH-RH receptor
T1 sequence (looked up): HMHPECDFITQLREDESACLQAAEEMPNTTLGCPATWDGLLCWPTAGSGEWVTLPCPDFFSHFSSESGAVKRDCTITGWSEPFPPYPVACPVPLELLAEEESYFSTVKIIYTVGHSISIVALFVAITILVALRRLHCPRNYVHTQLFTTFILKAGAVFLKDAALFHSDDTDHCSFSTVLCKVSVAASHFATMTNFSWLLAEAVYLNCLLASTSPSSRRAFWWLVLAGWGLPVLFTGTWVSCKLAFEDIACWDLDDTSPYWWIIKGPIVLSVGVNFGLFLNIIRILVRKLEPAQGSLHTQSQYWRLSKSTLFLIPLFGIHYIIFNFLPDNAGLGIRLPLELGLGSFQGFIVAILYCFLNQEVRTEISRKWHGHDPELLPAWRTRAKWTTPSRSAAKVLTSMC

B1: [Dat^1, D-Ala^2, N-Me-Ala^8, Orn^12, Abu^15, Orn^21, Nle^27, Asp^28, Agm^29]hGH-RH(1-29) (peptide)
chain: [Desaminotyrosyl][dA]DAIFT[NMeA]SYR[Orn]VL[Abu]QLSAR[Orn]LLQDI[Nle]D[Agmatine]
SMILES: CCCC[C@H](NC(=O)[C@@H](NC(=O)[C@H](CC(=O)O)NC(=O)[C@H](CCC(N)=O)NC(=O)[C@H](CC(C)C)NC(=O)[C@H](CC(C)C)NC(=O)[C@H](CCCN)NC(=O)[C@H](CCCNC(=N)N)NC(=O)[C@H](C)NC(=O)[C@H](CO)NC(=O)[C@H](CC(C)C)NC(=O)[C@H](CCC(N)=O)NC(=O)[C@H](CC)NC(=O)[C@H](CC(C)C)NC(=O)[C@@H](NC(=O)[C@H](CCCN)NC(=O)[C@H](CCCNC(=N)N)NC(=O)[C@H](Cc1ccc(O)cc1)NC(=O)[C@H](CO)NC(=O)[C@H](C)N(C)C(=O)[C@@H](NC(=O)[C@H](Cc1ccccc1)NC(=O)[C@@H](NC(=O)[C@H](C)NC(=O)[C@H](CC(=O)O)NC(=O)[C@@H](C)NC(=O)CCc1ccc(O)cc1)[C@@H](C)CC)[C@@H](C)O)C(C)C)[C@@H](C)CC)C(=O)N[C@@H](CC(=O)O)C(=O)NCCCCNC(=N)N
B2: [Dat^1, D-Abu^2, Orn^12, Abu^15, Orn^21, Nle^27, Gab^30]hGH-RH(1-30)NH2 (peptide)
chain: [Desaminotyrosyl][dAbu]DAIFTNSYR[Orn]VL[Abu]QLSAR[Orn]LLQDI[Nle]SR[GABA]-NH2
SMILES: CCCC[C@H](NC(=O)[C@@H](NC(=O)[C@H](CC(=O)O)NC(=O)[C@H](CCC(N)=O)NC(=O)[C@H](CC(C)C)NC(=O)[C@H](CC(C)C)NC(=O)[C@H](CCCN)NC(=O)[C@H](CCCNC(=N)N)NC(=O)[C@H](C)NC(=O)[C@H](CO)NC(=O)[C@H](CC(C)C)NC(=O)[C@H](CCC(N)=O)NC(=O)[C@H](CC)NC(=O)[C@H](CC(C)C)NC(=O)[C@@H](NC(=O)[C@H](CCCN)NC(=O)[C@H](CCCNC(=N)N)NC(=O)[C@H](Cc1ccc(O)cc1)NC(=O)[C@H](CO)NC(=O)[C@H](CC(N)=O)NC(=O)[C@@H](NC(=O)[C@H](Cc1ccccc1)NC(=O)[C@@H](NC(=O)[C@H](C)NC(=O)[C@H](CC(=O)O)NC(=O)[C@@H](CC)NC(=O)CCc1ccc(O)cc1)[C@@H](C)CC)[C@@H](C)O)C(C)C)[C@@H](C)CC)C(=O)N[C@@H](CO)C(=O)N[C@@H](CCCNC(=N)N)C(=O)NCCCC(N)=O
B3: [N-Me-Tyr^1, Abu^2, Orn^12, Abu^15, Orn^21, Nle^27, Gab^30]hGH-RH(1-30)NH2 (peptide)
peptide: [NMeY][Abu]DAIFTNSYR[Orn]VL[Abu]QLSAR[Orn]LLQDI[Nle]SR[GABA]-NH2
modifications: N-terminus assumed
SMILES: CCCC[C@H](NC(=O)[C@@H](NC(=O)[C@H](CC(=O)O)NC(=O)[C@H](CCC(N)=O)NC(=O)[C@H](CC(C)C)NC(=O)[C@H](CC(C)C)NC(=O)[C@H](CCCN)NC(=O)[C@H](CCCNC(=N)N)NC(=O)[C@H](C)NC(=O)[C@H](CO)NC(=O)[C@H](CC(C)C)NC(=O)[C@H](CCC(N)=O)NC(=O)[C@H](CC)NC(=O)[C@H](CC(C)C)NC(=O)[C@@H](NC(=O)[C@H](CCCN)NC(=O)[C@H](CCCNC(=N)N)NC(=O)[C@H](Cc1ccc(O)cc1)NC(=O)[C@H](CO)NC(=O)[C@H](CC(N)=O)NC(=O)[C@@H](NC(=O)[C@H](Cc1ccccc1)NC(=O)[C@@H](NC(=O)[C@H](C)NC(=O)[C@H](CC(=O)O)NC(=O)[C@H](CC)NC(=O)[C@H](Cc1ccc(O)cc1)NC)[C@@H](C)CC)[C@@H](C)O)C(C)C)[C@@H](C)CC)C(=O)N[C@@H](CO)C(=O)N[C@@H](CCCNC(=N)N)C(=O)NCCCC(N)=O
notes: also called Peptide 25503

biological target: GHRH receptor of human pituitary membrane homogenates (human) (UniProt Q02643); assay: radioligand competition, 125I-JV-1-42 (~0.2 nM) as competitor, human pituitary membrane homogenates

IC50 [nM]	Relative affinity (Binding potency) vs JI-38 (fold, JI-38 = 1)	Molecule
1.06	4.1	[N-Me-Tyr^1, D-Ala^2, Orn^12, Abu^15, Orn^21, Nle^27, Asp^28]hGH-RH(1-29)NH-CH3 (from UniProt P01286 32-60) (peptide)
0.71	6.12	[N-Me-Tyr^1, D-Ala^2, Gln^8, Orn^12, Abu^15, Orn^21, Nle^27, Asp^28, Apa^30]hGH-RH(1-30)NH2 (from UniProt P01286 32-61) (peptide)
0.82	5.3	[N-Me-Tyr^1, D-Ala^2, Gln^8, Orn^12, Abu^15, Orn^21, Nle^27, Asp^28, Agm^29]hGH-RH(1-29) (from UniProt P01286 32-60) (peptide)
2.74	1.59	[Dat^1, D-Ala^2, Gln^8, Orn^12, Abu^15, Orn^21, Nle^27, Asp^28, D-Arg^29]hGH-RH(1-29)NH-CH3 (from UniProt P01286 32-60) (peptide)
1.56	2.79	[N-Me-Tyr^1, D-Ala^2, Fpa5^6, Orn^12, Abu^15, Orn^21, Nle^27, Gab^30]hGH-RH(1-30)NH-CH3 (from UniProt P01286 32-61) (peptide)
1.47	2.96	[N-Me-Tyr^1, D-Ala^2, Orn^12, Abu^15, Orn^21, Nle^27, Asp^28]hGH-RH(1-29)NH-CH2-CH3 (from UniProt P01286 32-60) (peptide)
0.55	7.91	[Dat^1, D-Ala^2, Gln^8, Orn^12, Abu^15, Orn^21, Nle^27, Asp^28]hGH-RH(1-29)NH-CH3 (from UniProt P01286 32-60) (peptide)
0.87	5	[N-Me-Tyr^1, D-Ala^2, Fpa5^6, Orn^12, Abu^15, Orn^21, Nle^27, Asp^28]hGH-RH(1-29)NH-CH3 (from UniProt P01286 32-60) (peptide)
3.44	1.26	[Ac-N-Me-Tyr^1, D-Ala^2, Gln^8, Orn^12, Abu^15, Orn^21, Nle^27, Asp^28, Agm^29]hGH-RH(1-29) (from UniProt P01286 32-60) (peptide)
1.7	2.56	[N-Me-Tyr^1, D-Ala^2, Orn^12, Abu^15, Orn^21, Nle^27, Asp^28, Agm^29]hGH-RH(1-29) (from UniProt P01286 32-60) (peptide)
3.05	1.43	[N-Me-Tyr^1, D-Ala^2, Fpa5^6, Orn^12, Abu^15, Orn^21, Nle^27, Asp^28, Agm^29]hGH-RH(1-29) (from UniProt P01286 32-60) (peptide)
0.16	27.2	[N-Me-Tyr^1, D-Ala^2, Gln^8, Orn^12, Abu^15, Orn^21, Nle^27, Asp^28]hGH-RH(1-29)NH-CH3 (from UniProt P01286 32-60) (peptide)
1.07	4.07	[N-Me-Tyr^1, D-Ala^2, Orn^12, Abu^15, Orn^21, Nle^27, Gab^30]hGH-RH(1-30)NH2 (from UniProt P01286 32-61) (peptide)

biological target: T1, GHRH receptor of human pituitary …; assay: as above
From the text: Normal human pituitaries were purchased from the National Hormone and Peptide Program (A. F. Parlow, Los Angeles, County Harbor-UCLA Medical Center, Torrance, Calif.).

IC50 [nM]	Relative affinity (Binding potency) vs JI-38	Molecule
0.86	5.06 fold, JI-38 = 1	B1
1.44	3.02 fold, JI-38 = 1	B2
1.18	3.67 fold, JI-38 = 1	B3
